Data as given in patent publication US20110158985A1 (published 2011).
Numbering of substitutions follows the chain as printed.

Key:
human FcRn [1] = biological target: T1, human FcRn (human); assay: SPR (BIAcore), FcRn over immobilised IgG1, pH 6.0
T1 construct: also called recombinant human FcRn
Protocol: (§1) IgG1 variants was monitored by surface plasmon resonance detection using a BIAcore 3000 instrument (Pharmacia Biosensor, Uppsala, Sweden). […] The protein concentrations ranged from 3-5 μg/ml in 10 mM sodium acetate, pH 5.0. The activation period was set for 7 minutes at a flow rate of 10 μl/min and the immobilization period was set to between 10 and 20 minutes at a flow rate of 10 μl/min. […] Human and murine FcRn were buffer exchanged against 50 mM PBS buffer pH 6.0 containing 0.05% Tween 20. Dilutions were made in the same buffer. All binding experiments were performed at 25° C. with concentrations ranging from 120 to 1 μg/ml at a flow rate of 5 to 10 μl/min; data were collected for 25 to 50 minutes and three 1-minute pulses of PBS buffer pH 7.2 were used to regenerate the surfaces. FcRn was also flowed over an uncoated cell and the sensorgrams from these blank runs subtracted from those obtained with IgG1-coupled chips. Runs were analyzed using the software BIAevaluation 3.1 (Pharmacia). Association constants (KAs) were determined from Scatchard analysis by measuring the concentration of free reactants and complex at equilibrium after correction for nonspecific binding.

murine FcRn = biological target: T2, murine FcRn (mouse, UniProt P01887 21-119); assay: SPR (BIAcore), FcRn over immobilised IgG1, pH 6.0
T2 construct: also called mouse FcRn; muFcRn
T2 sequence: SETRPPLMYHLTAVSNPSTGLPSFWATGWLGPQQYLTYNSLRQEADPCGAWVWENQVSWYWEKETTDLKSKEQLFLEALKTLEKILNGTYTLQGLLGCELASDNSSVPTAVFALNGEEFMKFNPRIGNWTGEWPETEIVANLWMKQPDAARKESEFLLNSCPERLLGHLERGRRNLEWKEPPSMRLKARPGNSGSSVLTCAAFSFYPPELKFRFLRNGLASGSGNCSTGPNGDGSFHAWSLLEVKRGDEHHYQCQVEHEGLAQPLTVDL
T2 sequence (b2m): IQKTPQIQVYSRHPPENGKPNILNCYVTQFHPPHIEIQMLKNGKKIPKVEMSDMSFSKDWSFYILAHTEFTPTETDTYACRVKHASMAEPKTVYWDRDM
Protocol: as §1

human FcRn [2] = biological target: T1, human FcRn; assay: SPR (BIAcore 3000), FcRn over immobilised IgG, pH 6.0, one-site fit
Protocol: (§2) Human and Cynomolgus Monkey FcRn were buffer-exchanged against 50 mM Phosphate Buffered Saline (PBS) pH 6.0 or 7.4 containing 0.05% Tween 20. Dilutions were made in the same buffers. […] FcRn was also flowed over an uncoated cell and the sensorgrams from these blank runs subtracted from those obtained with IgG-coupled chips. Runs were analyzed using the software BIAevaluation 3.1 (Pharmacia). Dissociation constants (Kds) were determined by fitting the binding isotherms to a one-site binding model using GraphPad Prism (GraphPad Software, Inc., CA). Errors were estimated as the mean standard deviation for at least 2 independent determinations.

Cynomolgus Monkey FcRn [3] = biological target: T3, Cynomolgus Monkey FcRn (Cynomolgus Monkey, UniProt Q8SPV9 24-290; Q8SPW0 21-119); assay: as above
T3 construct: also called Cynomolgus FcRn
T3 sequence (Q8SPV9 24-290 limits assumed, chain 1 of 2): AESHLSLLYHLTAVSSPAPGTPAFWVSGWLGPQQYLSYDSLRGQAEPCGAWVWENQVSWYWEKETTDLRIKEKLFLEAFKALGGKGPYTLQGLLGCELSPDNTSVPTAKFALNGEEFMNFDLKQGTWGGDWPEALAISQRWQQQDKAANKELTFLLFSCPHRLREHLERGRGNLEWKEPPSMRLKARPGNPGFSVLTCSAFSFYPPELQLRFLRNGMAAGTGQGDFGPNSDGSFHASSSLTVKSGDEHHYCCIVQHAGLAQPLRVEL
T3 sequence (Q8SPW0 21-119 limits assumed, chain 2 of 2): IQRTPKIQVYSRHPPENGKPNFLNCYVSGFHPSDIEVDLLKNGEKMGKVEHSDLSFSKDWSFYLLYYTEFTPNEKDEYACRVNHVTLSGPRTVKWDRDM
Protocol: as §2

human FcRn [4] = biological target: T1, human FcRn; assay: SPR (BIAcore 3000), FcRn over immobilised IgG
Protocol: as §2

Cynomolgus Monkey FcRn [5] = biological target: T3, Cynomolgus Monkey FcRn; assay: SPR (BIAcore 3000), FcRn over immobilised IgG
Protocol: as §2

T1 sequence (chain, as listed by the source limits assumed, chain 1 of 2): as the sequence (Q8SPV9 24-290 limits assumed, chain 1 of 2) above, with D39N, Q44E, S99G, G189S, N190S, M217L counted along it
T1 sequence (P61769 21-119 limits assumed, chain 2 of 2): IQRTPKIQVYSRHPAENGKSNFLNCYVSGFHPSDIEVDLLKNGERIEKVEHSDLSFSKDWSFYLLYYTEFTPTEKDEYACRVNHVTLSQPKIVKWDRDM

B1: human IgG1 MEDI-493 (palivizumab) I253A (antibody)
heavy: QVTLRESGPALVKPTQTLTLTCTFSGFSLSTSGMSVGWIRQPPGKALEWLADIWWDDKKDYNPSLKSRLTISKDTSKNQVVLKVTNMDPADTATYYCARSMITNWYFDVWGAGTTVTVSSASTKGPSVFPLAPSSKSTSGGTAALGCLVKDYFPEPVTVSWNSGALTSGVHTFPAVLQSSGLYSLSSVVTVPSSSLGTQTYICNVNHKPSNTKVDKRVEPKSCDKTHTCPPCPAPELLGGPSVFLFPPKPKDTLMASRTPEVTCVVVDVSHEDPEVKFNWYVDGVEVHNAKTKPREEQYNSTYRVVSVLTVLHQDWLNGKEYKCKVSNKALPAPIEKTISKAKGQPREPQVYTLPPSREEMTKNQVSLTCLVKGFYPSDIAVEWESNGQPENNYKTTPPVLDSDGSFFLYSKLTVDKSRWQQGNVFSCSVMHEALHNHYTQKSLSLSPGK
light: DIQMTQSPSTLSASVGDRVTITCKCQLSVGYMHWYQQKPGKAPKLLIYDTSKLASGVPSRFSGSGSGTEFTLTISSLQPDDFATYYCFQGSGYPFTFGGGTKLEIKRTVAAPSVFIFPPSDEQLKSGTASVVCLLNNFYPREAKVQWKVDNALQSGNSQESVTEQDSKDSTYSLSSTLTLSKADYEKHKVYACEVTHQGLSSPVTKSFNRGEC
notes: also called 1253A
binding result (human FcRn [1]): no binding | binding result (murine FcRn): no binding

B2: MEDI-524-YTE (antibody, human IgG1, kappa)
heavy: QVTLRESGPALVKPTQTLTLTCTFSGFSLSTAGMSVGWIRQPPGKALEWLADIWWDDKKHYNPSLKDRLTISKDTSKNQVVLKVTNMDPADTATYYCARDMIFNFYFDVWGQGTTVTVSSASTKGPSVFPLAPSSKSTSGGTAALGCLVKDYFPEPVTVSWNSGALTSGVHTFPAVLQSSGLYSLSSVVTVPSSSLGTQTYICNVNHKPSNTKVDKRVEPKSCDKTHTCPPCPAPELLGGPSVFLFPPKPKDTLYITREPEVTCVVVDVSHEDPEVKFNWYVDGVEVHNAKTKPREEQYNSTYRVVSVLTVLHQDWLNGKEYKCKVSNKALPAPIEKTISKAKGQPREPQVYTLPPSREEMTKNQVSLTCLVKGFYPSDIAVEWESNGQPENNYKTTPPVLDSDGSFFLYSKLTVDKSRWQQGNVFSCSVMHEALHNHYTQKSLSLSPGK
light: B1 light with K24S, C25A, Q26S, L27S, S28R, L103V
Kd (human FcRn [2]): 210 nM | Kd (Cynomolgus Monkey FcRn [3]): 134 nM | fold affinity increase over MEDI-524 (human FcRn [4]): 11 fold | fold affinity increase over MEDI-524 (Cynomolgus Monkey FcRn [5]): 9 fold
